Patent US20230340137A1, “METHODS, THERAPIES AND USES FOR TREATING CANCER” (PFIZER INC., priority 2020, published 2023)

Assays:
[1] = test system: H929-luc cells; test: BCMAxCD3 mediated cell killing with human T cells, with or without GSI (luciferase viability); format: cell-based; conditions: with or without 1 μM GSI, 60 hours
Protocol: CD3^+ T cells from PBMCs (Stem Cell Technologies) were negatively selected using EasySep Human T cell enrichment kit (Stem Cell Technologies). Multiple myeloma cells expressing luciferase (MM.1S-luc, OPM2-luc, H929-luc, Molp8-luc, RPMI8226-luc) were treated with 1 μM GSI […]. After 24 hours, cells were seeded with 50,000 CD3^+ pan T cells in a clear 96-well V-bottom plate. Cells were further treated with a range of BCMAxCD3 bispecific antibody concentrations with or without 1 μM GSI. 60 hours after treatment, luciferase activity in treated cells was analyzed using NeoLite reagent kit (Perkin Elmer) and acquired on VictorX multimode plate reader (Perkin Elmer). Cell viability was calculated by dividing luciferase activity of treated cells over luciferase activity of untreated control (no BCMAxCD3 bispecific antibody added).

[2] = test system: adult patients with advanced multiple myeloma; test: Phase 1 clinical study NCT03269136, safety (DLT, CRS); format: in vivo
Excerpt: This Example illustrates an ongoing Phase 1 open-label, multicenter clinical study of PF-06863135 (BCMA×CD3 bispecific) as monotherapy and in combination with sasanlimab, lenalidomide or pomalidomide, in adult patients with advanced multiple myeloma who have relapsed from or are refractory to standard therapy. The study has been registered on ClinicalTrials.gov with identifier NCT03269136 and was first posted August 2017. Study results for Part 1 of the trial and additional arms for the study are described in this Example.
Part 1 of the Study is the […] single agent dose escalation arm at the dose levels of 0.1, 0.3, 1, 3, 10, 30, and 50 μg/kg Q1W by intravenous (IV) administration, and at the dose levels of 80, 130, 215, 360, 600 and 1000 μg/kg Q1W by subcutaneous (SC) administration. Upon reaching maximum tolerated dose (MTD)/maximum administered dose (MAD), patients can be treated at a dose level selected from the foregoing dose levels described in this paragraph, and below the MTD/MAD fora Q2W administration, both IV and SC, to further support the recommended phase 2 dose (RP2D) decision. For the study, dose limiting toxicity observation period is set at 21 days for Q1W dosing and 28 days for Q2W dosing. The treatment cycle, aka cycle, for Q1W dosing would be 3 weeks, and for Q2W dosing would be four weeks.
Clinical Outcome of Part 1 of the Study. As of 15 Apr. 2020, a total of 23 patients were enrolled in Part 1 of the study and had been treated with PF-06863135 administered intravenously (IV) at 0.1 (N=2), 0.3 (N=3), 1 (N=2), 3 (N=3), 10 (N=2), 30 (N=5), and 50 (N=6) μg/kg. As of Aug. 21, 2020, a total of 30 patients were enrolled in Part 1 of the study and had been treated with PF-06863135 administered subcutaneously (SC) at 80 (N=6), 130 (N=4), 215 (N=4), 360 (N=4), 600 (N=6) and 1000 (N=6) μg/kg. Safety and efficacy data were available for in 23 IV and 30 SC treated patients per IMWG (International Myeloma Working Group) criteria.
Part 1.1 of the Study is an alternative maintenance dose escalation arm for single agent PF-06863135. If excessive toxicity occurs or the maximum tolerated dose (MTD)/maximum administered dose (MAD) is reached at a dose level that is earlier than desired in Part 1 of the study described above, a priming dose will be administered one week prior to the day 1 cycle 1 administration of the dose (maintenance dose) at this dose level and for all subsequent dose levels in the dose escalation that may be initiated for Part 1.1. The priming dosing will be at a lower dose level than the maintenance dose.
Clinical outcome of Part 1.1 of the Study. As of Feb. 4, 2021, a total of 20 patients were enrolled and treatment in Part 1.1 of the Study, with cohort of 7 patients at a 600 μg/kg priming dose followed by 1000 μg/kg Q1W dosing, and a cohort of 13 patients at a 600 μg/kg priming dose followed by 1000 μg/kg Q2W dosing. The CRS in these two cohorts is described in Table 13. Introducing of priming dose decreased medium duration of CRS by 50%, from 4 days to 2 days. The dose frequency in part 1.1 of the study (Q1W v. Q2W) had no impact on the CRS. Patient response of Part 1.1 of the Study is described in Table 14.

[3] = 600 μg/kg priming, 1000 μg/kg Q1W or Q2W SC, N = 20
[4] = all SC treated patients (Part 1)

PF-06863135: heterodimeric humanized full-length bispecific antibody, one BCMA binding arm and one CD3 binding arm, modified human IgG2Δa Fc
H929 cell viability ([1]; BCMAxCD3 0.00001 nM): 80.2 ± 0.3 % control
H929 cell viability ([1]; BCMAxCD3 0.00005 nM): 81.1 ± 0.2 % control
H929 cell viability ([1]; BCMAxCD3 0.00026 nM): 79 ± 0.8 % control
H929 cell viability ([1]; BCMAxCD3 0.00128 nM): 77.8 ± 3.3 % control
H929 cell viability ([1]; BCMAxCD3 0.0064 nM): 81.2 ± 3 % control
H929 cell viability ([1]; BCMAxCD3 0.032 nM): 98.6 ± 1.2 % control
H929 cell viability ([1]; BCMAxCD3 0.16 nM): 23.2 ± 7.2 % control
H929 cell viability ([1]; BCMAxCD3 0.8 nM): 11.3 ± 1.5 % control
H929 cell viability ([1]; BCMAxCD3 4 nM): 8.6 ± 3 % control
Patients with CRS (number) ([2]; 10 μg/kg IV cohort): 1
patients with CRS (percent) ([2]; 10 μg/kg IV cohort): 50.0%
Patients with CRS (number) ([2]; 30 μg/kg IV cohort): 4
patients with CRS (percent) ([2]; 30 μg/kg IV cohort): 80.0%
patients with dose limiting toxicities (DLTs) ([2]; 30 μg/kg IV cohort): 1 patient
patients in whom CRS also occurred after second, third or fourth dose ([2]; 50 μg/kg IV): 3 patients
Patients with CRS (number) ([2]; 50 μg/kg IV cohort): 6
patients with CRS (percent) ([2]; 50 μg/kg IV cohort): 100.0%
patients with dose limiting toxicities (DLTs) ([2]; 50 μg/kg IV cohort): 1 patient
CRS Grade 1 (number of patients) ([2]; 80 μg/kg Q1W SC, N = 6): 2
CRS Grade 2 (number of patients) ([2]; 80 μg/kg Q1W SC, N = 6): 1
CRS Mean duration ([2]; 80 μg/kg Q1W SC, N = 6): 1 days
Patients with CRS (number) ([2]; 80 μg/kg Q1W SC, N = 6): 3
CRS Grade 1 (number of patients) ([2]; 130 μg/kg Q1W SC, N = 4): 2
CRS Grade 2 (number of patients) ([2]; 130 μg/kg Q1W SC, N = 4): 0
CRS Mean duration ([2]; 130 μg/kg Q1W SC, N = 4): 3 days
Patients with CRS (number) ([2]; 130 μg/kg Q1W SC, N = 4): 2
CRS Grade 1 (number of patients) ([2]; 215 μg/kg Q1W SC, N = 4): 3
CRS Grade 2 (number of patients) ([2]; 215 μg/kg Q1W SC, N = 4): 0
CRS Mean duration ([2]; 215 μg/kg Q1W SC, N = 4): 3 days
Patients with CRS (number) ([2]; 215 μg/kg Q1W SC, N = 4): 3
CRS Grade 1 (number of patients) ([2]; 360 μg/kg Q1W SC, N = 4): 2
CRS Grade 2 (number of patients) ([2]; 360 μg/kg Q1W SC, N = 4): 1
CRS Mean duration ([2]; 360 μg/kg Q1W SC, N = 4): 1.7 days
Patients with CRS (number) ([2]; 360 μg/kg Q1W SC, N = 4): 3
CRS Grade 1 (number of patients) ([2]; 600 μg/kg Q1W SC, N = 6): 4
CRS Grade 2 (number of patients) ([2]; 600 μg/kg Q1W SC, N = 6): 2
CRS Mean duration ([2]; 600 μg/kg Q1W SC, N = 6): 1.7 days
Patients with CRS (number) ([2]; 600 μg/kg Q1W SC, N = 6): 6
decrease of duration of CRS by introducing priming dose ([2]; 600 μg/kg priming then 1000 μg/kg vs 1000 μg/kg without priming, SC): 50%
CRS Grade 1 (number of patients) [2, 3]: 11
CRS Grade 2 (number of patients) [2, 3]: 9
CRS Mean duration [2, 3]: 2 days
Patients with CRS (number) [2, 3]: 20
patients with CRS (percent) [2, 3]: (100%)
CRS Grade 1 (number of patients) ([2]; 1000 μg/kg Q1W SC, N = 6): 5
CRS Grade 2 (number of patients) ([2]; 1000 μg/kg Q1W SC, N = 6): 1
CRS Mean duration ([2]; 1000 μg/kg Q1W SC, N = 6): 4 days
Patients with CRS (number) ([2]; 1000 μg/kg Q1W SC, N = 6): 6
toxicities ([2]; 600 and 1000 μg/kg SC): tolerable and manageable
patients with dose limiting toxicities (DLTs) ([2]; IV cohorts, 23 patients, febrile neutropenia Grade 3 and electrocardiogram QT prolongation Grade 1): 2 patients
CRS onset after dosing ([2]; IV cohorts, each patient with CRS): ≤ 2 days
Cytokine release syndrome (CRS), rank among adverse events ([2]; Part 1 of the study): most common adverse event reported
impact of dose frequency (Q1W v. Q2W) on the CRS ([2]; Part 1.1, 600 μg/kg priming, 1000 μg/kg SC): no impact
patients with dose limiting toxicities (DLTs) ([2]; SC cohorts, 30 patients): No patients
CRS onset after dosing ([2]; SC cohorts, primarily): ≤ 2 days
Patients with CRS (number) ([2]; all IV cohorts): 11 patients
patients with maximum Grade 1 CRS (number) ([2]; all IV treated patients): 6
patients with maximum Grade 1 CRS (percent) ([2]; all IV treated patients): 26.1%
patients with maximum Grade 2 CRS (number) ([2]; all IV treated patients): 5
patients with maximum Grade 2 CRS (percent) ([2]; all IV treated patients): 21.7%
patients with maximum Grade 1 CRS (number) [2, 4]: 18
patients with maximum Grade 1 CRS (percent) [2, 4]: 60.0%
patients with maximum Grade 2 CRS (number) [2, 4]: 5
patients with maximum Grade 2 CRS (percent) [2, 4]: 16.7%
CRS severity in SC-treated vs IV-treated patients ([2]; despite higher overall dose exposure in SC-treated patients): less severe
timing of CRS relative to doses ([2]; results of Part 1 of the Study): primarily occurs after the initial dose
